The data set addresses FLAG-HA-PTEN, P60484.

FLAG-HA-PTEN, P60484, sequence (P60484 whole entry): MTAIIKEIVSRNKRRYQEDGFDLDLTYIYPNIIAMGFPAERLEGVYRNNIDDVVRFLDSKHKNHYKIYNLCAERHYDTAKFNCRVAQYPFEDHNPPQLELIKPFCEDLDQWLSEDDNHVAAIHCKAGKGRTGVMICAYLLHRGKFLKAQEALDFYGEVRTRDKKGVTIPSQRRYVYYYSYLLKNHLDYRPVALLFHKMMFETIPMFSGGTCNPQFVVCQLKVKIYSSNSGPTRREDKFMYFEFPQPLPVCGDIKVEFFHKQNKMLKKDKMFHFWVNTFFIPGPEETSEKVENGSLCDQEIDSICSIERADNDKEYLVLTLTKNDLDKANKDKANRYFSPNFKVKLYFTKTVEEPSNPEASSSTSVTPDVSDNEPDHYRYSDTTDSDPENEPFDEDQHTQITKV

B1: Lyn (protein)
chain: GCIKSKGKDSLSDDGVDLKTQPVRNTERTIYVRDPTSNKQQRPVPESQLLPGQRFQTKDPEEQGDIVVALYPYDGIHPDDLSFKKGEKMKVLEEHGEWWKAKSLLTKKEGFIPSNYVAKLNTLETEEWFFKDITRKDAERQLLAPGNSAGAFLIRESETLKGSFSLSVRDFDPVHGDVIKHYKIRSLDNGGYYISPRITFPCISDMIKHYQKQADGLCRRLEKACISPKPQKPWDKDAWEIPRESIKLVKRLGAGQFGEVWMGYYNNSTKVAVKTLKPGTMSVQAFLEEANLMKTLQHDKLVRLYAVVTREEPIYIITEYMAKGSLLDFLKSDEGGKVLLPKLIDFSAQIAEGMAYIERKNYIHRDLRAANVLVSESLMCKIADFGLARVIEDNEYTAREGAKFPIKWTAPEAINFGCFTIKSDVWSFGILLYEIVTYGKIPYPGRTNADVMTALSQGYRMPRVENCPDELYDIMKMCWKEKAEERPTFDYLQSVLDDFYTATEGQYQQQP
Take B1: the “phosphorylation of PTEN on Y240 (Western blot with anti-pY240)” value is reported as “Upon co-expression of the Lyn cDNA with PTEN in HEK 293 cells, we observed a robust phosphorylation of PTEN on Y240” and the “phosphorylation of Y240 of PTEN (Western blot, FIG. 15)” value is reported as “the phosphorylation of Y240 is much greater in the presence of lyn than when src is expressed with PTEN”.
